# The supplement of paper PMC9112550, “Optimization of the antimicrobial peptide Bac7 by deep mutational scanning” (BMC Biology, 2022)
# System: Escherichia coli TOP10
# Assay: shrunken log2 fold change of peptide-encoding DNA abundance (4.5 h post-induction vs induction); higher = less antimicrobial activity (less host growth inhibition)
# Conditions: time post-induction: 4.5 h; library: site-saturation at positions 5, 18, 19, 20
# 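Further: peptides expressed intracellularly from a pBAD plasmid library in pooled LB shake-flask culture, induced with 0.3% L-arabinose, DNA abundance read by NGS, three biological replicates, DESeq2 with apeglm shrinkage.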
row,Sequence,shrunken log2 fold change
1,RRIRNRPPRLPRPRPRPTMAPRP,0.0535
2,RRIRGRPPRLPRPRPRPCGKPRP,0.0957
3,RRIRCRPPRLPRPRPRPYKTPRP,-0.404
4,RRIRWRPPRLPRPRPRPPEQPRP,0.153
5,RRIRFRPPRLPRPRPRPRYDPRP,-0.408
6,RRIRTRPPRLPRPRPRPGAKPRP,0.524
7,RRIRYRPPRLPRPRPRPKDFPRP,0.00489
8,RRIRMRPPRLPRPRPRPNYFPRP,0.0511
9,RRIRGRPPRLPRPRPRPPKIPRP,0.835
10,RRIRPRPPRLPRPRPRPFGTPRP,-0.444
11,RRIRKRPPRLPRPRPRPWMNPRP,-0.00146
12,RRIRWRPPRLPRPRPRPPWVPRP,-0.00745
13,RRIRQRPPRLPRPRPRPMTMPRP,-0.243
14,RRIRMRPPRLPRPRPRPSWNPRP,-0.15
15,RRIRLRPPRLPRPRPRPWPWPRP,0.0352
16,RRIRARPPRLPRPRPRPTSIPRP,0.109
17,RRIRQRPPRLPRPRPRPEYYPRP,-0.306
18,RRIRGRPPRLPRPRPRPWVMPRP,0.0476
19,RRIRTRPPRLPRPRPRPPQKPRP,0.0412
20,RRIRHRPPRLPRPRPRPAEAPRP,-0.0896
21,RRIRLRPPRLPRPRPRPQPNPRP,-0.00696
22,RRIRTRPPRLPRPRPRPHNWPRP,0.0661
23,RRIRERPPRLPRPRPRPDVQPRP,-0.0408
24,RRIRERPPRLPRPRPRPHSCPRP,0.00997
25,RRIRWRPPRLPRPRPRPDYRPRP,-0.0424

row,Sequence,shrunken log2 fold change
1,RRIRVRPPRLPRPRPRPIPAPRP,0.000426
2,RRIRKRPPRLPRPRPRPNFPPRP,0.117
3,RRIRKRPPRLPRPRPRPLVDPRP,0.218
4,RRIRYRPPRLPRPRPRPMTLPRP,-0.0394
5,RRIRPRPPRLPRPRPRPSDDPRP,-0.0663
6,RRIRERPPRLPRPRPRPFIAPRP,-0.2
7,RRIRTRPPRLPRPRPRPWYWPRP,-0.0177
8,RRIRYRPPRLPRPRPRPNYFPRP,-1.69
9,RRIRWRPPRLPRPRPRPFWEPRP,0.121
10,RRIRGRPPRLPRPRPRPALWPRP,0.985
11,RRIRDRPPRLPRPRPRPRKIPRP,0.0843
12,RRIRQRPPRLPRPRPRPCKPPRP,-0.207
13,RRIRRRPPRLPRPRPRPGKVPRP,-0.037
14,RRIRWRPPRLPRPRPRPRFEPRP,0.225
15,RRIRIRPPRLPRPRPRPKNNPRP,-0.878
16,RRIRIRPPRLPRPRPRPQNQPRP,-1.03
17,RRIRWRPPRLPRPRPRPMSWPRP,0.0971
18,RRIRPRPPRLPRPRPRPVHDPRP,-0.115
19,RRIRKRPPRLPRPRPRPVPDPRP,0.418
20,RRIRDRPPRLPRPRPRPIEYPRP,-0.029
21,RRIRDRPPRLPRPRPRPLCNPRP,-0.00406
22,RRIRDRPPRLPRPRPRPASPPRP,0.384
23,RRIRERPPRLPRPRPRPLVWPRP,0.339
24,RRIRHRPPRLPRPRPRPLCPPRP,-0.138
25,RRIRIRPPRLPRPRPRPMSVPRP,0.0466

row,Sequence,shrunken log2 fold change
1,RRIRSRPPRLPRPRPRPCICPRP,-0.209
2,RRIRERPPRLPRPRPRPWYNPRP,-0.174
3,RRIRTRPPRLPRPRPRPFTEPRP,-0.21
4,RRIRFRPPRLPRPRPRPTQYPRP,-0.261
5,RRIRKRPPRLPRPRPRPAAWPRP,0.443
6,RRIRDRPPRLPRPRPRPVCQPRP,0.0526
7,RRIRPRPPRLPRPRPRPWSTPRP,-0.172
8,RRIRKRPPRLPRPRPRPLFVPRP,0.153
9,RRIRRRPPRLPRPRPRPHYLPRP,-0.156
10,RRIRIRPPRLPRPRPRPCWSPRP,0.0832
11,RRIRFRPPRLPRPRPRPNLPPRP,-0.454
12,RRIRWRPPRLPRPRPRPQMMPRP,-0.0594
13,RRIRKRPPRLPRPRPRPQQGPRP,0.23
14,RRIRIRPPRLPRPRPRPSHNPRP,-1.06
15,RRIRLRPPRLPRPRPRPHAPPRP,0.304
16,RRIRNRPPRLPRPRPRPIQIPRP,-0.363
17,RRIRWRPPRLPRPRPRPMHSPRP,-0.0572
18,RRIRHRPPRLPRPRPRPHVSPRP,-0.0122
19,RRIRMRPPRLPRPRPRPPRWPRP,-0.117
20,RRIRDRPPRLPRPRPRPMISPRP,0.185
21,RRIRKRPPRLPRPRPRPLPNPRP,-0.0104
22,RRIRWRPPRLPRPRPRPTHHPRP,0.104
23,RRIRKRPPRLPRPRPRPYSWPRP,0.0046
24,RRIRGRPPRLPRPRPRPKIIPRP,0.303
25,RRIRMRPPRLPRPRPRPKFCPRP,0.0393
